Measurements taken from patent US20240425546A1 (NANTONG YICHEN BIOPHARMA, published 2024).

B1: hIL-1β63-66A (ligand)
chain: APVRSLNCTLRDSQQKSLVMSGPYELKALHLQGQDMEQQVVFSMSFVQGEESNDKIPVALGLAAAALYLSCVLKDDKPTLQLESVDPKNYPKKKMEKRFVFNKIEINNKLEFESAQFPNWYISTSQAENMPVFLGGTKGGQDITDFTMQFVSS
notes: also called IL-1β mutant containing four alanine mutations; hIL-1βE63-66A
B2: Canakinumab (antibody, V domains shown)
VH: QVQLVESGGGVVQPGRSLRLSCAASGFTFSVYGMNWVRQAPGKGLEWVAIIWYDGDNQYYADSVKGRFTISRDNSKNTLYLQMNGLRAEDTAVYYCARDLRTGPFDYWGQGTLVTVSS
VL: EIVLTQSPDFQSVTPKEKVTITCRASQSIGSSLHWYQQKPDQSPKLLIKYASQSFSGVPSRFSGSGSGTDFTLTINSLEAEDAAAYYCHQSSSLPFTFGPGTKVDIKR

Columns and labels:
E64AK-F4-mFc = molecular target: T1, E64AK-F4-mFc (mouse, UniProt P01863 123-330 = IgG part); experiment: ELISA, antigen coated
T1 construct: scFv fused to the Fc of mouse IgG2a by a linker; also called E64AK-F4-mFc fusion antibody

WT hIL-1β [1] = molecular target: T2, WT hIL-1β (human, UniProt P01584 117-269); experiment: cell-based or functional assay
WT hIL-1β [2] = molecular target: T2, WT hIL-1β; experiment: competitive ELISA on coated WT hIL-1β; canakinumab diluted in series, competitor E64AK-F4-mFc (100 nM)

T1 sequence (VL, as listed by the source limits assumed, chain 1 of 3): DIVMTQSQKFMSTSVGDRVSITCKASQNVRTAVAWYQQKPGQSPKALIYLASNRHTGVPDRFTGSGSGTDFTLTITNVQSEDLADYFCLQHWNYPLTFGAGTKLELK
T1 sequence (VH, as listed by the source limits assumed, chain 2 of 3): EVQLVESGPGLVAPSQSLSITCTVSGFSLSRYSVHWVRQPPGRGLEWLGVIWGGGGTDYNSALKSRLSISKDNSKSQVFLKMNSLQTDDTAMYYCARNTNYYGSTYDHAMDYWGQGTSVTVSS
T1 sequence (P01863 other isoform, or with tags, fused parts or gaps limits assumed, chain 3 of 3): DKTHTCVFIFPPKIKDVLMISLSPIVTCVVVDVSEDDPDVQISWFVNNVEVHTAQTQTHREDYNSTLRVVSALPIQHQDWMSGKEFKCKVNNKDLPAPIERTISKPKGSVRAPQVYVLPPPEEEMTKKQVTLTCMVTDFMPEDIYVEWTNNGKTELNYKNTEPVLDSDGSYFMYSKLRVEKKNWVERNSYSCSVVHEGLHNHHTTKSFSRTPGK

| Binder | binding result (E64AK-F4-mFc) | inhibition of IL-1β-induced activation of HEK-Blue IL-1R cells (SEAP), IC50 (WT hIL-1β [1]) [nM] | IC50 (WT hIL-1β [2]) [nM] |
| --- | --- | --- | --- |
| B1 | no binding | – | – |
| B2 | – | 4.7 | 2.1 |
